Where a chain is given by its changes, count along the chain named.
B1: 74804_12A21B: anti-IL1RAP mAb; VH SEQ ID NO:6, VL SEQ ID NO:23, κ light chain (antibody, V domains shown)
VH: QVQLLQSGAEVKKPGSSVKVSCKASGGTFSIYAIDWVRQAPGQGLEWMGGIIPIFGTANSAQKFQGRVTITADKSTSTAYMELSSLRSEDTAVYYCARNGATSDAFDMWGQGTMVTVSS
VL: EIVLTQSPGTLSLSPGERATLSCRASLSVSSNYLAWFQQRPGQAPRLLIHGVSRRATGIPDRFSGSGSGTDFTLTISRLEPEDFAVYYCQQYGSSPLTFGGGTKVEIK
modifications: 74804_12A21B VH and 74804_29D13A VH; 74804_12A21B VL
B2: 74804_43F04A: anti-IL1RAP mAb; VH SEQ ID NO:7, VL SEQ ID NO:22, κ light chain (antibody, V domains shown)
VH: B1 VH with A58E, K63N, V68I, S77N, M108I, S118F
VL: B1 VL with H50Y
modifications: 74804_43F04A VH; 74804_07K10A VL, 74804_29D13A VL and 74804_43F04A VL

Key:
[1] = tested on: IL36γ-induced NFκB activity; assay: HEKBlue-IL36 cell-based reporter assay; details: HEKBlue-IL36, FIG. 22
Procedure: Inhibition by STLX2012 was measured by the HEKBlue-IL36 cell-based reporter assay. The HEK-Blue IL36 (Invivogen, Cat #hil36r-hkb) cell line was used to monitor NFκB activity upon stimulation with IL36γ cytokine. In this cell line, the secreted embryonic alkaline phosphatase reporter gene (SEAP) is inducibly expressed under the control of IFN-β minimal promoter fused to NFκB/AP-1. Specificity to IL36γ cytokine was achieved by blockage of TNF-α and IL1 response. Cells are maintained in the presence of zeocin (100 μg/ml) and blasticidin (10 μg/ml).

[2] = tested on: IL1-induced downstream signaling (phospho-ERK, NFκB) in AML patient samples; assay: IL1 signaling in AML patient samples, Western blot; assay type: cell-based, human; details: antibody 20 μg/ml, IL1β 100 ng/ml
Procedure: AML patient samples or cancer cells (AML, chronic myelogenous leukemia (CML), pancreatic, head and neck squamous cell carcinoma (HNSCC), bladder, non-small-cell lung carcinoma (NSCLC), colorectal and triple-negative breast cancer (TNBC)) were seeded in 6-well plates (5×10^5 cells/well) and incubated overnight at 37° C./5% CO2 in humified incubator. In experiments conducted in cancer cell lines, cells were washed 2× with PBS and serum-starved for 3 hours. Following, cells were treated with IL1RAP antibodies at concentration of 20 μg/ml and incubated for 1 h at 37° C./5% CO2 in humidified incubator. After 1 h, cells were treated with IL1β (Invivogen, cat: rcyec-hil1b), IL33 (Adipogen, cat: AG-40B-0160-C010) or IL36 cytokines (R@D, cat: 6836IL) at 100 ng/ml and incubated for 15 more minutes. Cells were harvested on ice after 1× wash with cold PBS and were centrifuged for 5 minutes at 5000 rpm at 4° C. Cells were then lysed with NP-40 buffer for 5 minutes on ice and centrifuged for 15 minutes at 15000 rpm at 4° C. Supernatants were collected and protein concentrations were determined by BCA (Thermofisher, Cat #PI23225). […] After 3× washes, ECL was applied (Thermofisher, Cat #32106) and proteins were detected after exposure to autoradioraphic films (Worldwide medical products, Cat #41101001) and protein intensity was quantitated using ImageJ software.

SK-MEL-5 cells = assay: Jurkat-Lucia NFAT-CD16 ADCC reporter assay against SK-MEL-5 cells; assay type: cell-based; details: SK-MEL-5 target cells
Excerpt: Methods: ADCC activity is mediated through binding of NK cell's CD16 receptors to the Fc region of antibodies. A Jurkat-Lucia NFAT-CD16 ADCC Reporter cell assay (Invivogen, Cat #jktl-nfat-cd16; https://www.invivogen.com/jurkat-lucia-nfat-adcc-adcp-cells) was used to analyze IL1RAP mAb STLX2012 for ADCC activity. Briefly, the Jurkat cell line was engineered to express the cell surface Fc receptor CD16A (FcγRIIIA) and the Lucia luciferase reporter gene. ADCC is triggered by CD16A cross-linking upon antigen-bound antibody binding at the surface of immune effector cells. Cells are maintained in the presence of zeocin (100 μg/ml) and blasticidin (10 μg/ml).
The STLX2012-DLE antibody was then analyzed for ADCC activity using the Jurkat-Lucia NFAT-CD16 ADCC Reporter cell assay, described in Example 11 above.

AML patient samples = assay: Proliferation of AML patient samples, Cell-Titer Glo; assay type: cell-based, human; details: 1 μM, 7 days
[3] = tested on: patient-derived AML samples; assay: Cell viability of patient-derived AML samples, CellTiter-Glo; assay type: cell-based, human; details: 15 patient-derived AML samples; 0.1-100 nM, 6 days
Procedure: Primary patient-derived AML cells collected using leukapheresis or peripheral blood draw were selected based on expression levels of IL1RAP, IL1R1 and IL1RL1. On study day 0, cell viability was calculated, and cells were seeded at a density of 20,000 viable cells/well in 96-well plates. Cells were treated on Day 0 with IL1RAP monoclonal antibodies at a concentration of 100 nM followed by 5-fold serial dilutions. Cytarabine treatment (5 μM) was used as a positive control. Plates were kept at 37° C./5% CO2 in humified incubator and media was not changed during the duration of the assay. On Day 6, plates were removed from incubator and equilibrated to room temperature for up to 30 minutes. Then CellTiter-Glo was added to wells (100 μl) and plates were mixed for 2 minutes on plate rocker, followed by 10 minutes incubation at room temperature. Luminescent signal was recorded using Tecan plate reader and IC50s were calculated.

[4] = tested on: IL33-induced NFκB activity; assay: HEK-BlueIL33 NFκB Reporter Assay; assay type: cell-based, human; details: nM range, read-out: IC50, inhibition of IL33-induced NFκB activity
Excerpt: HEK-Blue IL33 (Invivogen, Cat #hkb-hil33) cell line was used to monitor NFκB activity upon stimulation with IL33 cytokine. The secreted embryonic alkaline phosphatase reporter gene (SEAP) is inducible expressed under the control of IFN-β minimal promoter fused to NFκB/AP-1. HEK-BlueIL33 cells were also generated upon stable transfection with human IL1RL1 (ST2) gene. Specificity to IL33 cytokine was achieved by blockage of TNF-α and IL1 response. Cells are maintained in the presence of hygromycin (200 μg/ml), zeocin (100 μg/ml) and blasticidin (10 μg/ml).
For the functional assay, cells were plated at a density of 5×10^4 cells/well in 96-well plates. Cells were treated with each antibody at the highest concentration of 200 μg/ml followed by seven serial 1:3 dilutions and incubated for 45 minutes at 37° C./5% CO^2 in humified incubator. Cells were then stimulated with IL33 (12 μM) and incubated overnight at 37° C./5% CO2 in humified incubator. Every treatment was conducted in triplicates. Following, supernatants from each well were mixed with Quanti-Blue substrate (Invivogen, Cat #rep-qb1) according to manufacturer's recommendations and secreted SEAP was measured using spectrophotometer at 650 nm.

Row | Molecule | Inhibition of IL36γ-induced NFκB activity [1] | Inhibition of IL1 signaling (phosphorylation of ERK and NFκB) [2] | ADCC activity (reporter) (SK-MEL-5 cells) | Inhibition of cell proliferation (AML patient samples) | Inhibition of viability [3] | IC50 [4] [nM]
1 | B1 | inhibition of the IL36γ-induced NFκB activity in a dose-dependent manner | inhibited IL1 signaling in AML patient samples | showed ADCC activity | inhibited cell proliferation | inhibition of viability of patient-derived AML samples | –
2 | B2 | – | – | – | – | – | 9.62

Source: US20240392013A1, “IL1RAP ANTIBODIES AND USES THEREOF” (STELEXIS THERAPEUTICS, LLC, priority 2021, published 2024)
